The values below come from US8969289.

Assay [1] deals with β-klotho of differentiated 3T3-L1 adipocytes (mouse) (UniProt Q99N32). The assay is described as follows: cell-based or functional assay.
The target in the next assay is human β-klotho (human) (UniProt Q86Z14). The assay is described as follows: cell-based or functional assay.
Assay [2] has as its target T1, human serum albumin (human, UniProt P02768 25-609).
T1 construct: mature; Purified or recombinant albumin from suppliers; also called HSA; HuSA
The assay is described as follows: comment in the summary table; Biacore at lowered pH; target not given, HSA by paragraph 278.

For the next assay, the target named is Amylin receptor (chimpanzee; human, UniProt O60896 24-148). In words: cell-based or functional assay.
Amylin receptor, sequence (O60896 24-148): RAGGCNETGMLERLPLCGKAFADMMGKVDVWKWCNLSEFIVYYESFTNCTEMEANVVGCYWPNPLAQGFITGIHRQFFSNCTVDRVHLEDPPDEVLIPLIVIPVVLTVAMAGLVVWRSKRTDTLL
The target of assay [3] is T1, human serum albumin. In words: isothermal titration calorimetry (refers to FIG. 11). On the procedure: SABA-FGF21 fusion protein plus buffer was placed in the instrument sample cell at a concentration range of 0.4 to 1.0 mg/mL protein. The matching buffer was placed in the reference cell. Concentrations were determined using extinction coefficients calculated from the protein sequences of the pure proteins. The instrument reaction cell was equilibrated at 37° C. […] The resultant thermogram data was fitted using Origin™ evaluation software package (Microcal Inc.) version 2.0.2 to estimate the stochiometry, enthalpy, and equilibrium disassociation constant (K_D) of the protein-protein binding reaction.

Positions of bridges follow the written chain, without caps; N, C: chain ends. No end group written: not given here.

β-klotho of differentiated 3T3-L1 adipocytes (mouse), sequence (Q99N32 whole entry): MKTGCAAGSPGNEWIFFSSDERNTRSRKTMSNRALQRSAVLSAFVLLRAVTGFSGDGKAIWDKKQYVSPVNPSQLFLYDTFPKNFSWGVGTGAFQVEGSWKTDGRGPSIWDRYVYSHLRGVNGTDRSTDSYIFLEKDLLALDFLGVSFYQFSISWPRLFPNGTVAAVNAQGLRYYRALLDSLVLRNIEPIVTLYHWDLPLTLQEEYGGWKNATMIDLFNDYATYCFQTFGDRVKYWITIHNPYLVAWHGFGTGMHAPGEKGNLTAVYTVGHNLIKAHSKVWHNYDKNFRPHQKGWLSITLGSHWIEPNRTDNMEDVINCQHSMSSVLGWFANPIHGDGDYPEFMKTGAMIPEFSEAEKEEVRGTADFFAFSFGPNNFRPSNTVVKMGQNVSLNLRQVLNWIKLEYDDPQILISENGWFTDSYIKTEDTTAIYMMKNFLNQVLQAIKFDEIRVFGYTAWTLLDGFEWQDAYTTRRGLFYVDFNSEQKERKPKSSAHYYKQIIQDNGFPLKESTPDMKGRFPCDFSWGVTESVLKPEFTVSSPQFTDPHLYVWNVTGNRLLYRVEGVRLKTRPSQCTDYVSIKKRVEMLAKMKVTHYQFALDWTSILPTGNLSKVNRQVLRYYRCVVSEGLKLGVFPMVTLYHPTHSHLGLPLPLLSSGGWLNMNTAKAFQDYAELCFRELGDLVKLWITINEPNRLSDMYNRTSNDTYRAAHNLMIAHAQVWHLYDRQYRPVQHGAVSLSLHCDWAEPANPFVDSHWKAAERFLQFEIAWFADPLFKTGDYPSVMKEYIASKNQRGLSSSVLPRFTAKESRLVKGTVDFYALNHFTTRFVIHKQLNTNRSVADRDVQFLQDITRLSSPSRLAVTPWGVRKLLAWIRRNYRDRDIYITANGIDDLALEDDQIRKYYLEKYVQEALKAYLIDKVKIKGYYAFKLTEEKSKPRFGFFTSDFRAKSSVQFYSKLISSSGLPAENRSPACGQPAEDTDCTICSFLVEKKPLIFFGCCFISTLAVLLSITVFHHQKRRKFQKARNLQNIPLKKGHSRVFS

Regarding “His-tagged FGF21 (from UniProt Q9NSA1 29-209) (ligand)”, in assay [1], the EC50, pERK 1/2 in 3T3-L1 adipocytes was determined as 4 nM and the Fold Activation, pERK 1/2 in 3T3-L1 adipocytes is 2.1 fold. In the assay with human β-klotho (human), this molecule registered an EC50 (potency), pERK 1/2 in HEK β-Klotho expressing stable cells of 7 nM and an Efficacy (% of His6-tagged FGF21 maximal activity), pERK 1/2 in HEK β-Klotho expressing stable cells of 100%.

B1: SABA4.1 (designed binder)
chain: MGVSDVPRDLEMVAATPTSLLISWEDDSYYSRYYRITYGETGGNSPVQEFTVPSDLYTATISGLKPGVDYTITVYAVTYDVTDLIMHEPISINYRTEIDKPSQHHHHHH
notes: Core 4 Adnectin (carries a scaffold mutation) with AdNT1, AdCT1 and His6
As for B1, the “fold decrease in KD at pH < 6.0” value in the assay with human serum albumin [2] is above 2 fold.

B2: SABA5.1 (designed binder)
chain: MGVSDVPRDLEVVAATPTSLLISWEDDSYYSRYYRITYGETGGNSPVQEFTVPSDLYTATISGLKPGVDYTITVYAVTYDVTDLIMHEPISINYRTEIDKPSQHHHHHH
notes: Scaffold-perfect version of SABA4 with the same BC, DE and FG loops; AdNT1, AdCT1 and His6
With B2, the “fold decrease in KD at pH < 6.0” value with human serum albumin [2] is above 2 fold.

B3: Amylin Control Peptide (peptide)
peptide: KCNTATCATQRLANFLVRSSNNLGPVLPPTNVGSNTY-NH2
modifications: disulfide 2-7
Regarding B3, the “Efficacy (% of native peptide ligand maximal activity), cellular cAMP assay” value in the assay with Amylin receptor stood at 100%.

B4: SABA1-FGF21v1 (designed binder)
chain: MGVSDVPRDLEVVAATPTSLLISWHSYYEQNSYYRITYGETGGNSPVQEFTVPYSQTTATISGLKPGVDYTITVYAVYGSKYYYPISINYRTEIEKPSQGSGSGSGSGSGSGSPIPDSSPLLQFGGQVRQRYLYTDDAQQTEAHLEIREDGTVGGAADQSPESLLQLKALKPGVIQILGVKTSRFLCQRPDGALYGSLHFDPEACSFRELLLEDGYNVYQSEAHGLPLHLPGNKSPHRDPAPRGPARFLPLPGLPPALPEPPGILAPQPPDVGSSDPLSMVGPSQGRSPSYAS
notes: Single-chain fusion: SABA core 1 with AdNT1 leader and AdCT7 tail, (GS)7 linker, FGF21 core with FNT3 leader and C-terminal S; also called SABA-FGF21v1 fusion; FGF21-SABA fusion
In general, Kd refers to the concentration at which binding is half-saturated. A lower Kd goes with a tighter complex. In the case of B4, in the assay with human serum albumin [3], the Kd was around 4 nM.

B5: SABA1.7-(ED)5G-Cys-PEG20-Amylin-CONH2 (designed binder)
chain: MGVSDVPRDLEVVAATPTSLLISWHSYYEQNSYYRITYGETGGNSPVQEFTVPYSQTTATISGLKPGVDYTITVYAVYGSKYYYPISINYRTEIEDEDEDEDEDGC
modifications: Maleimide-PEG20 spacer (X1) between the Cys after (ED)5G and the amylin peptide; disulfide bridge between the two Cys of the amylin part; C-terminal amidation
As for B5, in the assay with Amylin receptor, the “Cell based Potency (EC50), cellular cAMP assay” value was 12.2 nM and the “Efficacy (% of native peptide ligand maximal activity), cellular cAMP assay” value is 119%.
